The data set is described as follows: self-splicing fitness, log relative to wild type (ln ratio); higher = more splicing; Tetrahymena group I intron in knt gene, E. coli kanamycin selection, DiMSum; sequences stand for … in CUCUCU…GGAGGGAAAAGUUAUCAGGCAUGCACCUGGUAGCUAGUCUUUAAACCAAUAGAUUGCAUCGGUUUAAAAGGCAAGACCGUCAAAUUGCGGGAAAGGGGUCAACAGCCGUUCAGUACCAAGUCUCAGGGGAAACUUUGAGAUGGCCUUGCAAAGGGUAUGGUAAUAAGCUGACGGACAUGGUCCUAACCACGCAGCCAAGUCCUAAGUCAACAGAUCUUCUGUUGAUAUGGAUGCAGUUCACAGACUAAAUGUCGGUCGGGGAAGAUGUAUUCUUCUCAUAAGAUAUAGUCGGACCUCUCCUUAAUGGGAGCUAGCGGAUGAAGUGAUGCAACACUGGAGCCGCUGGGAACUAAUUUGUAUGCGAAAGUAUAUUGAUUAGUUUUGGAGUACUCGUGGUCG
The procedure, abridged: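 Colonies from six replicate transformations of E. coli BL21(DE3) were pooled and amplicon-sequenced on an Illumina HiSeq 2500. The library placed an intron with all eight P1ex-region nucleotides randomised inside the knt kanamycin-resistance gene on pET-22b(+), and cells grew overnight at 37°C or 30°C on LB agar with or without 25 μg/mL kanamycin (plus 100 μg/mL carbenicillin, 50 μM IPTG, 0.2% rhamnose). Fitness is the DiMSum error-weighted combination of wild-type-normalised replicate fold changes, kanamycin versus none.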

± gives the uncertainty stated by the source.

For the sequence CACUAGCAAUAUUACGCGGA, the “self-splicing fitness (ln)” value is -3.19 ± 0.25 (30 °C) and -1.85 ± 0.18 (37 °C).

Consider CUAUAGCAAUAUUACGCAGU, for which the “self-splicing fitness (ln)” value (30 °C) was -3.51 ± 0.2 and the “self-splicing fitness (ln)” value (37 °C) was -2.55 ± 0.27.

With GCACAGCAAUAUUACGCACG, the “self-splicing fitness (ln)” value runs as follows: (30 °C) -2.06 ± 0.11; (37 °C) -0.889 ± 0.1.

Take CAUGAGCAAUAUUACGUAAU: the “self-splicing fitness (ln)” value by setting is: (30 °C) -3.04 ± 0.29; (37 °C) -2.73 ± 0.3.

For the sequence AUAAAGCAAUAUUACGGCUG, the “self-splicing fitness (ln)” value reads like this: (30 °C) 0.334 ± 0.069; (37 °C) 0.483 ± 0.1.

Take CUAUAGCAAUAUUACGCUAG: the “self-splicing fitness (ln)” value was -3.14 ± 0.41 (30 °C) and -2.99 ± 0.47 (37 °C).

For GCCAAGCAAUAUUACGAUUA, the “self-splicing fitness (ln)” value by setting is: (30 °C) -2.86 ± 0.17; (37 °C) -2.57 ± 0.15.

CCCAAGCAAUAUUACGUCAU: the “self-splicing fitness (ln)” value (30 °C) was -2.95 ± 0.14 and the “self-splicing fitness (ln)” value (37 °C) is -2.74 ± 0.13.

Consider UAUGAGCAAUAUUACGGACU, for which the “self-splicing fitness (ln)” value is -3.55 ± 0.4 (30 °C) and -2.46 ± 0.26 (37 °C).

Regarding AACAAGCAAUAUUACGCUGC, the “self-splicing fitness (ln)” value is -3.38 ± 0.3 (30 °C) and -2.45 ± 0.28 (37 °C).

In the case of GUAGAGCAAUAUUACGCUUA, the “self-splicing fitness (ln)” value runs as follows: (30 °C) -0.468 ± 0.087; (37 °C) -0.371 ± 0.1.

With CGCAAGCAAUAUUACGUUUU, the “self-splicing fitness (ln)” value is, setting by setting: (30 °C) -4.46 ± 0.15; (37 °C) -2.83 ± 0.16.

As for CUGUAGCAAUAUUACGGUAA, the “self-splicing fitness (ln)” value runs as follows: (30 °C) -3.63 ± 0.24; (37 °C) -2.3 ± 0.26.

ACUCAGCAAUAUUACGAGCG: the “self-splicing fitness (ln)” value reads like this: (30 °C) -0.49 ± 0.061; (37 °C) -0.185 ± 0.071.

In the case of ACAGAGCAAUAUUACGUUUA, the “self-splicing fitness (ln)” value is -3.01 ± 0.15 (30 °C) and -3.24 ± 0.23 (37 °C).

For UCCCAGCAAUAUUACGAGCU, the “self-splicing fitness (ln)” value was -3.05 ± 0.17 (30 °C) and -2.18 ± 0.2 (37 °C).

UCCAAGCAAUAUUACGCGUA: the “self-splicing fitness (ln)” value reads like this: (30 °C) -0.121 ± 0.056; (37 °C) 0.286 ± 0.06.

Consider CUGUAGCAAUAUUACGCGUG, for which the “self-splicing fitness (ln)” value was -1.41 ± 0.1 (30 °C) and -0.0484 ± 0.12 (37 °C).

As to AAACAGCAAUAUUACGCAUG, the “self-splicing fitness (ln)” value was -2.12 ± 0.077 (30 °C) and -1.58 ± 0.089 (37 °C).

With GUAGAGCAAUAUUACGUUAG, the “self-splicing fitness (ln)” value is, setting by setting: (30 °C) -2.43 ± 0.12; (37 °C) -0.99 ± 0.19.

As for UUAAAGCAAUAUUACGGCGC, the “self-splicing fitness (ln)” value was -0.589 ± 0.11 (30 °C) and 0.34 ± 0.17 (37 °C).

Consider UCAAAGCAAUAUUACGAACG, for which the “self-splicing fitness (ln)” value (30 °C) is -0.696 ± 0.076 and the “self-splicing fitness (ln)” value (37 °C) was -0.646 ± 0.11.

As to GCCCAGCAAUAUUACGAUCU, the “self-splicing fitness (ln)” value (30 °C) was -1.36 ± 0.092 and the “self-splicing fitness (ln)” value (37 °C) is -1.47 ± 0.12.

UGUAAGCAAUAUUACGUAAC: the “self-splicing fitness (ln)” value by setting is: (30 °C) -2.22 ± 0.15; (37 °C) -2.91 ± 0.4.

Take AGCAAGCAAUAUUACGCUCG: the “self-splicing fitness (ln)” value (30 °C) is -2.82 ± 0.27.

Turning to UCAAAGCAAUAUUACGUGAA, the “self-splicing fitness (ln)” value (30 °C) is -1.42 ± 0.069 and the “self-splicing fitness (ln)” value (37 °C) is -1.06 ± 0.1.

As for ACAGAGCAAUAUUACGCCUG, the “self-splicing fitness (ln)” value (37 °C) is -1.94 ± 0.46.

Regarding AGGUAGCAAUAUUACGGUAU, the “self-splicing fitness (ln)” value runs as follows: (30 °C) -1.957 ± 0.015; (37 °C) -1.07 ± 0.033.

As for UACGAGCAAUAUUACGCAGU, the “self-splicing fitness (ln)” value reads like this: (30 °C) -3.15 ± 0.26; (37 °C) -2.95 ± 0.33.

As for AUGGAGCAAUAUUACGUAUC, the “self-splicing fitness (ln)” value is, setting by setting: (30 °C) -3.83 ± 0.47; (37 °C) -1.67 ± 0.24.

Turning to GAUGAGCAAUAUUACGGCCU, the “self-splicing fitness (ln)” value runs as follows: (30 °C) -2.54 ± 0.18; (37 °C) -1.98 ± 0.23.

Regarding UGCUAGCAAUAUUACGGCGG, the “self-splicing fitness (ln)” value is -1.15 ± 0.16 (30 °C) and -0.887 ± 0.23 (37 °C).

Regarding ACCAAGCAAUAUUACGACUC, the “self-splicing fitness (ln)” value is -1.56 ± 0.17 (30 °C) and -0.459 ± 0.2 (37 °C).

As for CGGUAGCAAUAUUACGUCUC, the “self-splicing fitness (ln)” value (30 °C) was -2.46 ± 0.12 and the “self-splicing fitness (ln)” value (37 °C) is -1.86 ± 0.13.

In the case of GAUCAGCAAUAUUACGGGAC, the “self-splicing fitness (ln)” value was -1.51 ± 0.085 (30 °C) and -0.976 ± 0.1 (37 °C).

For UUUGAGCAAUAUUACGAGGA, the “self-splicing fitness (ln)” value reads like this: (30 °C) -3.62 ± 0.28; (37 °C) -3.55 ± 0.46.

In the case of CGAAAGCAAUAUUACGGCCC, the “self-splicing fitness (ln)” value runs as follows: (30 °C) -1.42 ± 0.19; (37 °C) -0.196 ± 0.35.

Turning to UCCGAGCAAUAUUACGCGAC, the “self-splicing fitness (ln)” value is -2.63 ± 0.41 (30 °C) and -1.58 ± 0.4 (37 °C).
